Reference: the nanobody polyreactivity screen of Harvey et al. (2022)

Assay: yeast display, Sf9 membrane polyspecificity reagent, FACS + sequencing; frameworks hold sequencing errors
Procedure, shortened: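 Nanobodies came from a synthetic yeast display library in Saccharomyces cerevisiae BJ5465, induced with galactose for 36–48 hours and stained for 1 hour at 4 °C with 10% biotinylated, detergent-solubilized Sf9 membrane reagent. Cells were enriched on streptavidin microbeads and then FACS-sorted, with low and high (top ~1%) gates set on anti-HA fluorescence for expression and streptavidin fluorescence for reagent binding. Each polyreactivity label reflects the gate a clone came from. Genes were amplified by colony PCR, sequenced by MiSeq 2 × 250 and filtered by CDR length.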

Sequence	polyreactivity (PSR sort gate)
QVQLVESGGGLVQAGGSLRLSCAASGYTFYVYAMGWYRQAPGKERELVADISTSDGSTYYADSVKGRFTISRDNAKNTVYLQMNSLKPEDTAVYYCNTDGSHGLYDWFWPANNDDWGQGTQVSVSS	low polyreactivity
QVQLEESGGGLVQAGGSLRLSCAASGSIFSYNAMGWYRQAPGKERELVAAISRGSGSTYYADSVKGRFTISRDNAKNTVYLQMNSLKPEDTAVYYCATRSIRVLPDVYRKADDYWGQGTQVTVSS	low polyreactivity
QVQLVESGGGLVQAGGSLRLSCAASGSTFGINAMGWYRQAPGKERDLVAAISSRGGSTYYADSVKGRFTISRDNAKNTVYLLMNSLKPEDTAVYYCAAEFAVSFYWSWLGQDYYYWGQGTQVTVSS	high polyreactivity
QVQLVESGGGLVQAGGSLRLSCAASGFTFEENAMGWYRPAPGKERELVAAINWSGGNTYYADSVKGRFTISRDNAKNPDSLQMNSLKPEDSAVYYCNAAGAGDDYDYWGQGTQVTVSS	high polyreactivity
QVQLEESGGGLVQAGGSLRLSCAASGRTIIINTMGWYRQAPGKERELVAAISKNGATTNYADSLKGRFTISRDNAKNTVYLQMNSLKPEDTSVYYCNARYSGYLRLDYWGQGTQVNVSS	low polyreactivity
QVQLVESGGGLVQAGGSLRLSCAASGRIFTRYAMGWSRQAPGKERELVAAISSGGSTYYADSVKGRYTISRDKAKNTVYLQMNSLKPEDTAVYYCAAGTWWWYKFNYWGQGTQVTVSS	high polyreactivity
QVQLVESGVGLVQAGGSLRLSCAASGRTIPIYAMGWYRQAPGKERELVASITRSGGSTYYADSVKGRFTISRDNAKYTVYLQMNSLKPEDTAVYYCAAAANSYSVYSGKFYYWGQGTQVTVSS	high polyreactivity
QVQLVESGGGLVQAGGSLRLSCAASGSIFDVNAMGWYRQAPGKERELVAGISWSGGSTYYADSVKGRFTISRDNAKNTVYLQMNSLKPEDTAVYYCNAEGPIYFYFYRGMDYWGQGTQVTVSS	low polyreactivity
QDQHVESGGGLVQAGGSLRLSCAASGSIFNYYAMGWYRQAPGKEREFVAAISRSGGSTYYADSEKGRFTISRDNAKNTVYLEMNSLKPEDTAVYYCNAYSYSEAGDDGDYWGQGTQVTVSS	low polyreactivity
QVQLVESGGGLVQAGGSLRLSCAASGSIFFLYAMGWYRQAPGKERELVAAISCSGGRTYYADSVKGRFTISRDNAKNTDYIQMNSLKPEDTAVYYCAASYSGRQDRYPHYDYWGQGTQVTVSS	low polyreactivity
QVQLVESGGGLVQAGGSLRLSCAAYGINFLQYAMGWYRQAPGKDRELVAAITRRGDRTYYADSVKGRFTISRDNAKYTVYLQMISLKPEDTAVYYCAASYWYRDYYYWGQGTQVTVSS	high polyreactivity
QVQLGETRGGLVQAGGSLRLSCAASASIFAPYAMGGYRQAPGKERELVAAITWSGDSTYYADSVKGRFTISRDNAKYTVYLQMNSLKPEDTAVYYCATEEVYGQGNYWGQGTQVTVSS	low polyreactivity
QVQLVESGGGLVQAGGSLRLSCASSGSTFTGNAMGWYRQAPGKERELVAAISYRGVSTSYADSVKGRFTISRDNAKNTVYLQMNSLKPEDTAVYYCAKRRSLVRSIPFDSWGQGTQVTVSS	low polyreactivity
QVQLVESGGGLVQAGGSLRLSCDASGSTFSYYTMGWYRQAPGKERELVAAITGSGGRTYYADSVKGRFTISRDNAKNTVYLQMNSLKPEDSAVYYCAARLYTAADHYNYWGQGTQVTVSS	high polyreactivity
QVQLVESGGGLVQAGGSLRLRCAASGIIFYGNAMGWYRPAPGQERELVAAISRRSGSTYYADSVKGRFTISRDTAKNTVYLQMNSLKPEDTAVYYGNKRAANAVTINDMDYWGQGTQVTVSS	high polyreactivity
QVQLVESGGGLVQAGGSLRLSCAASGRIFSGNAMGWYRQAPGKERELVAAISWSGGSTYYADSVKGRFTISRDNAKNSVYLQMNSLKPEDTAVSYCNAPGYRRYGSRMGYWGQGTQVTVSS	high polyreactivity

Sequence	polyreactivity (PSR sort gate)
QVQLVESVGGLVQAGGSLRLSCAASGRIFPAYAMGWYRQAPGKERELVASIRRGGITYADSVKGRFTISRDNAKNTVYLQMKSLKPEDTAVYYCNADYRGWGYHMDYWGQGTQVTVSS	low polyreactivity
QVQLVESGGGLVQAGGSLRLSCAASGSTFHKYAMGWYRQAPGKEREFVAAISWSGGSTYYADSVKGRFTISRDNAKNTVYLQMNSLKPEDTAVYYCAAKGGVSRARWRSIFWHDYWGQGTQVTVSS	high polyreactivity
QVQLVESGGGLVQAGGSLRLSCAASGLSFGIYAIGWYRKAPGKERELVAAISRSGGSTYYADSVKGRFTISRDNAKNTVYLQMNSLKPEDTAVYYCAAPYYVGYDYWGQGTQVTVSS	high polyreactivity
QVQLVESGGGLVQAGGSLRLSCAASGSIIYTYAMGWYRQAPGKVRELVAAITGSDNTNYADSVKGRFTISRDNAKNTVYLQMNSLNPEDTAVYYCAADFPWSTKSWHPDSGDSWGQGTQVTVSS	low polyreactivity
QVQLVESGGGLVQAGGSLRLSCAASGRTFGQNAMGWYRQAPGKERELVAAISASGSNTYYADSVKGRFTISRDHAKNTVYLQMNSLKPEDTAVYYCAKQVYRPGQQSRYDYWGQGTQVTVSS	low polyreactivity
QGQLVESGGGLVQAGGSLRLSCAASGGTFEYNTMGWYRQAPGKERELVAAIRSSTVRTYYADSVKGRFTISRDNAKNTVYLQMNSLKPEDTAVYYCAATRYRKYWGQGTQVTVTS	high polyreactivity
QVQLVESGGGLVQAGGSLRLTCSASGSTFPSNSMGGYRQAPGKERELVAAITFRGGRTYYADSVKGRFTISRDNAKNTVYLQMNSLIPEDTAVYYCAAERWWYTVRGYGYWGQGTQVTVSS	high polyreactivity
QVQLVESGGGLVQAGGSLRLSCAASGFIYPRNTMGWYRQAPGKERELVAAITWIGGRTYYADSVKGRFTISRDNAKNTVYLQMNSLKPEDTAVYYCAADYSVFYDEDYWGQGTQVTVSS	low polyreactivity
QVQLVDSAGALVQAGGSLRLSCAASGRTFRYNAMGWYRQAPGKERELVAAITQSGGSTYYADSVKGRFTISRDNAKNTVYLQMNSQKPEDTAVYYCAKVRERINYDYWGQGTQVTVSS	low polyreactivity
QVQLVESGGGLVQAGGSLRLSCAASGIFVDNAMGWYRQAPGKERELVAAITSSTDSTYYADSVKGRFTISRDNAKNTVYLQMNSLKPEDTAVYYCAVARPGGFYFLVHYGYGYWGQGPQVTVSS	low polyreactivity
QVQLVESGGGLVQAGGSLRLSCAASGIIFHVYAMGWYRQAPGKERELVAAISDDGSTNYADSVKGRFTISRDNAKNTVYLQMNSLKPEDTAVYYCAKESWGRLYYRYDYWGQGTQVTVSA	low polyreactivity
QVQLVESGGGLVQAGGSLRLSCAASGFIFGYNGMGWYRQAPGKERELVAYADSVKGRFTISRDNAKNTVYLQMNSLKPEDTAVYFCAADRGYVWRYDYWGQGTQVTVSS	low polyreactivity
QVQLVESGGGLVQAGGSLRLSCAASGGIFHVYGMGWYRQAPGKERELVAAISYSGASTSYADSVKGRFTISRDNAKNTVYLQMNSLKPEDTAVYYCAAKVYYRRYRSGYDYWGQGTQVTVSS	high polyreactivity
QVQLVESVGGLVQAGGSLRLSCAASGFIFSYYAMGGYRQAPGKERELVAAISKTGGNTYYADSVKGRFTISRDNAKNTVYLQMNSLKPEDSAVYYCNALRGDWRDMGYWGQGTQVTVSS	high polyreactivity
QVQLVESGGGLVQAGGSLRLSCAASGIIFKGYDMGWYRQAPGKERELVAAISSGSTNYADSVKGRFTISRDNAKNTVYLQMNSLKPEDTAVYYCAAYNDTVPSAAHIYESWGQGTQVTVSS	low polyreactivity
QVQLVESGGGLVQAGGSLRISCAASGRTFWYYAKGWDRQAPGKEREFVAAISWSGGSTYYADSVKGRFTISRDNAKNTVYLQMNSLKPEDTAVSYCAADRYDSSQFYYWGQGTQVTVSS	low polyreactivity
